Test results from article PMC10739865, “The Mycobacterium tuberculosis methyltransferase Rv2067c manipulates host epigenetic programming to promote its own survival” (Nature Communications, 2023).

Target: the molecule itself
Test: crystal structure

B1: Mycobacterium tuberculosis methyltransferase Rv2067c (tagless recombinant protein used for crystallization) (enzyme)
chain: TDDHPRADIVSRQYHRWLYPHPIADLEAWTTANWEWFDPVHSHRILWPDREYRPDLDILIAGCGTNQAAIFAFTNRAAKVVAIDISRPALDHQQYLKDKHGLANLELHLLPIEELATLGRDFDLVVSTGVLHHLADPRAGMKELAHCLRRDGVVAAMLYGKYGRIGVELLGSVFRDLGLGQDDASIKLAKEAISLLPTYHPLRNYLTKARDLLSDSALVDTFLHGRQRSYTVEECVDLVTSAGLVFQGWFHKAPYYPHDFFVPNSEFYAAVNTLPEVKAWSVMERLETLNATHLFMACRRDRPKEQYTIDFSTVAALDYVPLMRTRCGVSGTDMFWPGWRMAPSPAQLAFLQQVDGRRTIREIAGCVARTGEPSGGSLADLEEFGRKLFQSLWRLDFVAVALPASG
notes: also called MTase
  stoichiometry N: 2
